# Assay results published in the supplement of paper PMC9112550, “Optimization of the antimicrobial peptide Bac7 by deep mutational scanning” (BMC Biology, 2022).
# Tested on: Escherichia coli TOP10
# Test: shrunken log2 fold change of peptide-encoding DNA abundance (4.5 h post-induction vs induction); higher = less antimicrobial activity (less host growth inhibition)
# Details: time post-induction: 4.5 h; library: site-saturation at positions 5, 18, 19, 20
# 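Also: peptides expressed intracellularly from a pBAD plasmid library in pooled LB shake-flask culture, induced with 0.3% L-arabinose, DNA abundance read by NGS, three biological replicates, DESeq2 with apeglm shrinkage.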
row,Sequence,shrunken log2 fold change
1,RRIRFRPPRLPRPRPRPDKTPRP,-0.0318
2,RRIRWRPPRLPRPRPRPCSNPRP,-0.0711
3,RRIRFRPPRLPRPRPRPIPDPRP,-0.215
4,RRIRTRPPRLPRPRPRPNFMPRP,-0.401
5,RRIRFRPPRLPRPRPRPWEPPRP,-0.373
6,RRIRIRPPRLPRPRPRPTLAPRP,0.236
7,RRIRNRPPRLPRPRPRPHSYPRP,0.132
8,RRIRIRPPRLPRPRPRPQEIPRP,-0.581
9,RRIRLRPPRLPRPRPRPGCLPRP,-0.129
10,RRIRARPPRLPRPRPRPQDRPRP,-0.139
11,RRIRFRPPRLPRPRPRPQMIPRP,-0.484
12,RRIRCRPPRLPRPRPRPECYPRP,-0.238
13,RRIRLRPPRLPRPRPRPCLPPRP,-0.0626
14,RRIRFRPPRLPRPRPRPMMCPRP,-0.139
15,RRIRLRPPRLPRPRPRPKIQPRP,-0.131
16,RRIRNRPPRLPRPRPRPGDNPRP,0.0229
17,RRIRRRPPRLPRPRPRPHRTPRP,0.102
18,RRIRCRPPRLPRPRPRPAPFPRP,0.0214
19,RRIRVRPPRLPRPRPRPNGIPRP,-0.161
20,RRIRHRPPRLPRPRPRPYSKPRP,-1.03
21,RRIRFRPPRLPRPRPRPTWYPRP,-0.0222
22,RRIRTRPPRLPRPRPRPGYSPRP,1.78
23,RRIRHRPPRLPRPRPRPGTVPRP,-0.139
24,RRIRIRPPRLPRPRPRPDGIPRP,-0.0104
25,RRIRNRPPRLPRPRPRPGTFPRP,-0.281

row,Sequence,shrunken log2 fold change
1,RRIRFRPPRLPRPRPRPCDDPRP,-0.00233
2,RRIRNRPPRLPRPRPRPMNTPRP,-0.421
3,RRIRCRPPRLPRPRPRPYIIPRP,-0.985
4,RRIRRRPPRLPRPRPRPLRIPRP,0.724
5,RRIRFRPPRLPRPRPRPRLLPRP,0.342
6,RRIRIRPPRLPRPRPRPWFCPRP,-0.322
7,RRIRFRPPRLPRPRPRPSLIPRP,-1.06
8,RRIRFRPPRLPRPRPRPIWCPRP,-0.0176
9,RRIRFRPPRLPRPRPRPDAAPRP,0.681
10,RRIRERPPRLPRPRPRPHYIPRP,-0.133
11,RRIRQRPPRLPRPRPRPIFFPRP,-0.0319
12,RRIRNRPPRLPRPRPRPCRIPRP,-0.134
13,RRIRHRPPRLPRPRPRPECEPRP,0.16
14,RRIRHRPPRLPRPRPRPLMAPRP,-0.206
15,RRIRARPPRLPRPRPRPEWNPRP,0.76
16,RRIRLRPPRLPRPRPRPQYNPRP,-0.791
17,RRIRTRPPRLPRPRPRPQAFPRP,0.0884
18,RRIRYRPPRLPRPRPRPAPLPRP,-0.0323
19,RRIRARPPRLPRPRPRPKIGPRP,0.458
20,RRIRIRPPRLPRPRPRPRSDPRP,-0.284
21,RRIRTRPPRLPRPRPRPPYEPRP,0.0319
22,RRIRHRPPRLPRPRPRPVKLPRP,-0.438
23,RRIRLRPPRLPRPRPRPNEIPRP,0.0349
24,RRIRDRPPRLPRPRPRPPRQPRP,0.782
25,RRIRPRPPRLPRPRPRPDSHPRP,0.101

row,Sequence,shrunken log2 fold change
1,RRIRVRPPRLPRPRPRPAFNPRP,-0.416
2,RRIRFRPPRLPRPRPRPPQQPRP,-0.0751
3,RRIRLRPPRLPRPRPRPPSQPRP,0.756
4,RRIRGRPPRLPRPRPRPEHTPRP,0.0464
5,RRIRYRPPRLPRPRPRPWNDPRP,-0.0728
6,RRIRSRPPRLPRPRPRPMEIPRP,0.014
7,RRIRNRPPRLPRPRPRPIIRPRP,-0.00165
8,RRIRNRPPRLPRPRPRPRCDPRP,-0.203
9,RRIRDRPPRLPRPRPRPKETPRP,-0.0231
10,RRIRFRPPRLPRPRPRPIDDPRP,-0.548
11,RRIRIRPPRLPRPRPRPIAAPRP,0.0481
12,RRIRTRPPRLPRPRPRPTWCPRP,-0.178
13,RRIRARPPRLPRPRPRPHTWPRP,0.0641
14,RRIRCRPPRLPRPRPRPHWWPRP,0.0398
15,RRIRIRPPRLPRPRPRPLQVPRP,-2
16,RRIRQRPPRLPRPRPRPGQVPRP,0.111
17,RRIRARPPRLPRPRPRPCGAPRP,0.737
18,RRIRVRPPRLPRPRPRPHHVPRP,-0.261
19,RRIRKRPPRLPRPRPRPYLLPRP,-0.525
20,RRIRYRPPRLPRPRPRPGKQPRP,-0.0708
21,RRIRGRPPRLPRPRPRPMIIPRP,0.0975
22,RRIRIRPPRLPRPRPRPWNGPRP,-0.172
23,RRIRQRPPRLPRPRPRPADHPRP,-0.0888
24,RRIRSRPPRLPRPRPRPFPIPRP,0.0325
25,RRIRERPPRLPRPRPRPKCHPRP,-0.428
